The target in assay [1] is T1, CAV-2 fiber head (CAV-2H^wt) (Canine adenovirus 2 strain Toronto A 26-61, UniProt Q65914).
T1 construct: gene L5; fiber head domain residues 358-542, N-terminal His-tag cleaved with TEV, pPROEX HTb; homotrimer
The assay is described as follows: X-ray crystal structure ([…] Å). Format: binding. The note with it: crystals grown with 8 mM and soaked in about 80 mM ligand, pH 7.4; Neu5Ac moiety bound at trimer periphery (Asn435, Ser419, Ser416, Gln417, Arg515).

Assay [2] has as its target T2, HAd37 fiber head in complex with CAR D1 (Human adenovirus D37, UniProt Q64823).
T2 construct: gene L5; fiber head residues 177-365 with CAR domain D1; one monomer of each in asymmetric unit (space group I23, trimer by symmetry); with Coxsackievirus and adenovirus receptor (human), Ig-like domain D1
The assay can be described thus: X-ray crystal structure ([…] Å). The note with it: ligand soaked at 10 to 50 mM; ternary complex with CAR D1; Neu5Ac site of fiber head, not overlapping CAR site; HAd37 Neu5Ac site near the three-fold axis. Format: binding.

In assay [3] the target is CAR D1 (human) (UniProt P78310).
Sequence of CAR D1 (human) (P78310 20-140): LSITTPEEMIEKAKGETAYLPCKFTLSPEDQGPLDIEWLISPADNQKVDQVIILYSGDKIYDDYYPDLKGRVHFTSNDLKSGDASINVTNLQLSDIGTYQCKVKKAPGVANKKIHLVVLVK
Assay [4] deals with wild type CAV-2 fiber head (canine adenovirus serotype 2 (CAV-2)) (UniProt Q65914). The assay can be described thus: crystal structure; untagged CAV-2 fiber head crystallised with sialyl-D-lactose; 1.9 Å.
Assay [5] has the same target. The assay can be described thus: crystal structure; crystals of the CAV-2 fiber head - CAR D1 complex (space group I422) soaked with 10 to 50 mM sialyl-D-lactose; 2.9 Å.

Where only a bound is given, the exact number is not on record here.

With `CC(=O)N[C@H]1[C@H]([C@H](O)[C@H](O)CO)O[C@@](O[C@H]2[C@@H](O)[C@@H](CO)O[C@@H](O[C@H]3[C@H](O)[C@@H](O)C(O)O[C@@H]3CO)[C@@H]2O)(C(=O)O)C[C@@H]1O` (stereo partly drawn) [sialyl-D-lactose, α2-3 N-acetylneuraminosyl-D-lactose], the “X-ray crystal structure (1.9 Å)” value in assay [1] is “clear density for six N-acetyl neuraminic acid (Neu5AC) moieties in the asymmetric unit”. The “X-ray crystal structure (1.55 Å)” value in assay [2] was “one CAR D1 molecule and one sialyl-D-lactose molecule in the asymmetric unit”.
Compound “CAV-2H^CAR−: CAV-2 fiber head with E384A mutation (CAR binding site) (from UniProt Q65914 358-542) (domain or fragment)” yielded a fold reduction of CAV-2 hemagglutination of human erythrocytes (CAR on the erythrocytes) after pre-incubating the erythrocytes with the fiber head in assay [3] of 2 fold.
“CAV-2H^SA−1: CAV-2 fiber head mutant R515A (from UniProt Q65914 358-542) (domain or fragment)” had a fold reduction of CAV-2 hemagglutination of human erythrocytes (CAR on the erythrocytes) after pre-incubating the erythrocytes with the fiber head in assay [3] of 16 fold.
One may read the stoichiometry N as a count of units in the complex or per binding partner. For “wild type CAV-2 fiber head (from UniProt Q65914 358-542) (domain or fragment)”, in assay [3], the fold reduction of CAV-2 hemagglutination of human erythrocytes (CAR on the erythrocytes) after pre-incubating the erythrocytes with the fiber head is more than 256 fold. The stoichiometry N in assay [4] and in assay [5] was 3 each time.

The record behind these values is publication PMC2607015, “The Cell Adhesion Molecule “CAR” and Sialic Acid on Human Erythrocytes Influence Adenovirus In Vivo Biodistribution” (PLoS Pathogens, 2009).
